T1: human B7-H3 expressed by Mile Sven 1 cells stably transfected to express human B7-H3 (MS1-B7-H3) (human, UniProt Q5ZPR3 29-534)
T1 construct: whole, on cells; In the FACS sorts it was used as detergent solubilized, non-specifically biotinylated MS1-B7-H3 cell lysate; also called CD276; MS1-B7-H3 cells
T1 sequence (looked up): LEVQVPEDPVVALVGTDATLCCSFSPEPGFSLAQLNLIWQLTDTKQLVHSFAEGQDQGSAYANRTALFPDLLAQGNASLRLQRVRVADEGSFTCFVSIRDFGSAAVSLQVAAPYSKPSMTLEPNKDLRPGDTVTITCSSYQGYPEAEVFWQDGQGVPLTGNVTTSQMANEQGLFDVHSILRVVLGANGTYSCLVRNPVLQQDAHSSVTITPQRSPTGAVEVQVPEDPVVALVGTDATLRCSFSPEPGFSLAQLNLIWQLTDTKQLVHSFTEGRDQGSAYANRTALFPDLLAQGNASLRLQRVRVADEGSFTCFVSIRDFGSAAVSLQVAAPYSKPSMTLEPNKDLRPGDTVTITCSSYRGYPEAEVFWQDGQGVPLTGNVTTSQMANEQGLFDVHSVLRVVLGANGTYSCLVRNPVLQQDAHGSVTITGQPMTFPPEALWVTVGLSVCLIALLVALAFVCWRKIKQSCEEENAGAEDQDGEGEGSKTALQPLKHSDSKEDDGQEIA


Columns and labels:
[1] = molecular target: T1, human B7-H3 expressed by Mile Sven 1 …; experiment: flow cytometry titration of purified His6-tagged Gp2 on MS1-B7-H3 cells, anti-His6 FITC, 1:1 model
[2] = molecular target: T1, human B7-H3 expressed by Mile Sven 1 …; experiment: flow cytometry titration of purified His6-tagged fusion on MS1-B7-H3 cells, anti-His6 FITC, 1:1 model

Row | Binder | Kd [1] | Kd [2]
1 | Gp2 1.4.3 (designed binder, Purified from E. coli (pET-24b, NheI/BamHI cloning)) KFWATVQHVYSDFGFEVPVYAATLDEALQLAEVRYANSIFMVTRVRPHHHHHH | 3.4 nM | 
2 | Gp2 1.4.4 (designed binder, Purified from E. coli (pET-24b, NheI/BamHI cloning)) KFWATVQHVYSDFGFEAPVYAATLDEALQLAEVQYANSIFTVTRVRPHHHHHH | 1 nM | 
3 | Gp21.4.4-L15-SrtA (designed binder, range 60-206; also called Gp2-L15-SrtA fusion; Gp2 fusion construct) KFWATVQHVYSDFGFEAPVYAATLDEALQLAEVQYANSIFTVTRVRPGSGGGSGGGKGGGGTQAKPQIPKDKSKVAGYIEIPDADIKEPVYPGPATPEQLNRGVSFAEENESLDDQNISIAGHTFIDRPNYQFTNLKAAKKGSMVYFKVGNETRKYKMTSIRDVKPTDVGVLDEQKGKDKQLTLITCDDYNEKTGVWEKRKIFVATEVKHHHHHH |  | 1.8 nM

Reference: patent US20250179186A1 (REGENTS OF THE UNIVERSITY OF MINNESOTA, published 2025)
